A short description of series [1]: folding stability dG unfold from trypsin proteolysis; higher = more stable. The procedure, abridged:
(§1)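 Mini-proteins designed to be under 80 residues and free of cysteine were carried in a PA-tagged cDNA display construct and digested with trypsin and with chymotrypsin. Each protease was applied at 11 threefold-diluted concentrations, alongside a no-protease condition, before sequencing. K50 came from Bayesian fitting of the sequencing counts, and unfolding free energy was obtained by comparing it with a sequence-predicted unfolded-state K50 and a shared folded-state K50, for each protease separately or for both together. Designs were retained only if their AlphaFold2 dimer inter-PAE exceeded 15.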

Series [2] is described as follows: folding stability dG unfold (combined trypsin and chymotrypsin); higher = more stable. The procedure, abridged:
as §1

Series [3] in a line: folding stability dG unfold from chymotrypsin proteolysis; higher = more stable. In a few lines:
as §1

± gives the half width of the 95% confidence interval.

Here are results for 18 sequences from the supplement of paper PMC12764529.

“SAGGSAGGSDIPIEIVDVEHTDNMISVIIKGPDGNYFVINFQFNPGNGKFNVNISIIPPEDLKSAGGSAGGS [r20_70_TrROS]”: the figures for the “folding stability dG unfold” value in series [1], in series [2] and in series [3] were 2.07 ± 0.21 kcal/mol, 3.55 ± 0.26 kcal/mol and 3.95 ± 0.26 kcal/mol, respectively.
On to “SAGGSAGGSDKIVERLQKRFPNVRISNIQPTPDGVTIQIENPDGKEFTIPYDELEKHGIEIEPSAGGSAGGS [r12_3_TrROS]”, for which the “folding stability dG unfold” value in series [1] was determined as 0.217 ± 0.17 kcal/mol; in series [2], 0.456 ± 0.16 kcal/mol; in series [3], 0.595 ± 0.085 kcal/mol.
Take “SAGGSAGGSDKVVEFTFKIPSKDITAEDIAKAVKEAFPGVKKIEVTLYPGEGTAKVKVYLEPSSAGGSAGGS [r20_31_TrMRF]”: the “folding stability dG unfold” value was found to be 3.52 ± 0.16 kcal/mol in series [1], 4.29 ± 0.18 kcal/mol in series [2] and 4.44 ± 0.088 kcal/mol in series [3].
For the sequence “SAGGSAGGSDMVLVTAPVDIPPNVKVEIKLKDGYETVSYDPESGRLVILVPANKLDEVLEAIKSAGGSAGGS [r12_476_TrMRF]”, the “folding stability dG unfold” value was found to be 0.996 ± 0.026 kcal/mol in series [1], 1.65 ± 0.075 kcal/mol in series [2] and 2.01 ± 0.087 kcal/mol in series [3].
Taken in the same sequence, the figures for “SAGGSAGGSDNVKIEWEYNPENGVYTHEVYYDDGRPVTIIINPAEGPIWVFDPPDGKPIAPIPSAGGSAGGS [r12_657_TrROS]” were 1.36 ± 0.05 kcal/mol, 1.07 ± 0.073 kcal/mol and 0.833 ± 0.023 kcal/mol.
As to “SAGGSAGGSDPDLDIPPAPLEEIYIPGTGRLLVLYEPTGLVAAYPPSGSFEIGVYDPETGKISSAGGSAGGS [r12_420_TrMRF]”, the “folding stability dG unfold” value was -0.0238 ± 0.073 kcal/mol in series [1], -0.297 ± 0.12 kcal/mol in series [2] and -0.775 ± 0.3 kcal/mol in series [3].
In the same order, the values of “SAGGSAGGSDPSEVRLTFTVTVELTFDAVLFYEPGTGRLVAVAPYLRVEVEVEVTLTFPADALSAGGSAGGS [r12_600_TrMRF]” are 3.17 ± 0.096 kcal/mol, 4.63 ± 0.21 kcal/mol and 5.04 ± 0.11 kcal/mol.
For “SAGGSAGGSDRYLAVVFVRRADDPTPEVRTFTGIRTLADVERAVADALPADVAEVRIVVFPVRSAGGSAGGS [r20_29_TrMRF]”, the “folding stability dG unfold” value in series [1] turned out to be 1.59 ± 0.055 kcal/mol; in series [2], 1.67 ± 0.12 kcal/mol; in series [3], 1.82 ± 0.12 kcal/mol.
“SAGGSAGGSDTLEYEVPLEDGSTIRITLFPDGTARVELEDGTPVAEIEVPPDTSIEELIARIRSAGGSAGGS [r12_990_TrMRF]”: the figures for the “folding stability dG unfold” value in series [1], in series [2] and in series [3] were 2.74 ± 0.081 kcal/mol, 2.45 ± 0.076 kcal/mol and 2.06 ± 0.063 kcal/mol, respectively.
Turning to “SAGGSAGGSDTPTINIPPGMGNPEQAIEQLKEIREHFPPGKKISISAPGGWKPELKEAGLITVSAGGSAGGS [r12_992_TrROS]”, the “folding stability dG unfold” value is -0.37 ± 0.11 kcal/mol in series [1], 0.513 ± 0.11 kcal/mol in series [2] and 1.23 ± 0.08 kcal/mol in series [3].
In the case of “SAGGSAGGSDVEVEEVDVEIEVNGKKFKVKIYRNKKDKNRYYIFFEDTGKVFEIDKNGNIRPLSAGGSAGGS [r12_580_TrROS_Hall]”, the results for the “folding stability dG unfold” value in series [1], in series [2] and in series [3] were 2.74 ± 0.1 kcal/mol, 3.21 ± 0.064 kcal/mol and 3.49 ± 0.044 kcal/mol, respectively.
With “SAGGSAGGSDVEVTVTLEYDEETGVLYVTAEVRDKETGRTVRVVVKFDLETNEWEVVAVEVLPSAGGSAGGS [r20_163_TrROS_Hall]”, the “folding stability dG unfold” value in series [1] was determined as 2.92 ± 0.16 kcal/mol; in series [2], 3.91 ± 0.11 kcal/mol; in series [3] it was 4.25 ± 0.16 kcal/mol.
Consider “SAGGSAGGSDVSEEELRAIAEEIAAELGLSDITVEVEKLPTAVVRITITNPATGETIEIEVPESAGGSAGGS [r12_1000_JUSTAS]”, for which the “folding stability dG unfold” value turned out to be 1.75 ± 0.038 kcal/mol in series [1], 1.79 ± 0.047 kcal/mol in series [2] and 1.77 ± 0.061 kcal/mol in series [3].
Take “SAGGSAGGSDVTVTEYDVTLTVDVTFTAPDANGNPVTTTTPVTIPLKVTVFDFGTARLVVVEGSAGGSAGGS [r20_58_TrMRF]”: the entries for the “folding stability dG unfold” value in series [1], in series [2] and in series [3] were 2.86 ± 0.087 kcal/mol, 3.57 ± 0.058 kcal/mol and 3.82 ± 0.048 kcal/mol, respectively.
For the sequence “SAGGSAGGSDYEYENEKDPDGQTKMKMRPKPPPVTVEVLIKLPNGLYFPIEITIYGNHITISISAGGSAGGS [r12_784_TrROS]”, the results for the “folding stability dG unfold” value in series [1], in series [2] and in series [3] were 2.17 ± 0.12 kcal/mol, 2.32 ± 0.23 kcal/mol and 2.52 ± 0.075 kcal/mol, respectively.
Taken in the same sequence, the figures for “SAGGSAGGSDYKIEIEVEPMDPEDGYYQVELEIYDPNNGEPKEKIPVHMDSPEDAKDAIKELISAGGSAGGS [r12_26_TrROS]” were 0.499 ± 0.09 kcal/mol, 0.456 ± 0.084 kcal/mol and 0.362 ± 0.024 kcal/mol.
On to “SAGGSAGGSEEELKKLLDNIKEVKVVENENGEKYVVFTVTDKNGKKITIVAKSPEARELAKKLSAGGSAGGS [r12_466_TrROS_Hall]”, for which the “folding stability dG unfold” value turned out to be 1.45 ± 0.066 kcal/mol in series [1], 1.96 ± 0.11 kcal/mol in series [2] and 2.35 ± 0.046 kcal/mol in series [3].
Take “SAGGSAGGSEEKTVLARIKITFPDGEKREIEVEMTLDELKKLLEELGLSEEEVKIEVELVPLPSAGGSAGGS [r20_154_TrROS_Hall]”: the “folding stability dG unfold” value was 3.99 ± 0.11 kcal/mol in series [1], 3.8 ± 0.087 kcal/mol in series [2] and 3.56 ± 0.071 kcal/mol in series [3].
